This experiment concerns the target HLA-A*02:01. Nature of the experiment: IEDB peptide-MHC binding, purified MHC/competitive/fluorescence; ≥ and ≤ were set here for values at or beyond the usual limits of such assays. The following applies: source organism: Homo sapiens.
As usually defined, the IC50 is the concentration that gives 50% inhibition. Consider AAAFVNQHL, for which the half-inhibitory concentration (IC50) was 5.02 µM.
Sequence AAAFVNQHLC returned an IC50 of at least 100 µM.
AAFVNQHLCG came in with an IC50 of at least 100 µM.
The sequence AEDLQVGQV returned an IC50 of at least 100 µM.
The result for AEDLQVGQVE reads at least 100 µM; that for AFVNQHLCG, at least 100 µM; that for AFVNQHLCGS, at least 100 µM.
Under AGSLQPLAL stands at least 100 µM; under AGSLQPLALE, at least 100 µM.
The sequence ALLALWGPD came in with a concentration for half-maximal inhibition (IC50) of at least 100 µM.
The result for ALWGPDPAA reads 0.88 µM; that for CCTSICSLY, at least 100 µM.
CCTSICSLYQ yielded an IC50 of at least 100 µM.
The sequence CTSICSLYQ had a 50% inhibitory concentration (IC50) of at least 100 µM.
Under CTSICSLYQL stands at least 97.7 µM; under DLQVGQVEL, at least 100 µM; under DLQVGQVELG, at least 100 µM.
Under DPAAAFVNQ stands at least 100 µM; under DPAAAFVNQH, at least 100 µM.
The result for EAEDLQVGQ reads at least 100 µM; that for EDLQVGQVE, at least 100 µM.
The sequence EDLQVGQVEL came in with an IC50 of at least 100 µM.
Under ELGGGPGAG stands at least 100 µM; under ELGGGPGAGS, at least 100 µM.
On to EQCCTSICS, for which the IC50 was at least 100 µM.
Under EQCCTSICSL stands at least 100 µM.
The result for ERGFFYTPK reads at least 100 µM.
In turn, GAGSLQPLAL had an IC50 of at least 100 µM.
Sequence GGGPGAGSL showed an IC50 of at least 100 µM.
In the case of GGGPGAGSLQ, the IC50 was at least 100 µM.
Under GGPGAGSLQ stands at least 100 µM.
The result for GGPGAGSLQP reads at least 100 µM; that for GIVEQCCTS, at least 100 µM.
The result for GPDPAAAFV reads at least 100 µM; that for GPDPAAAFVN, at least 100 µM; that for GPGAGSLQP, at least 100 µM.
Sequence GQVELGGGP showed a half-inhibitory concentration (IC50) of at least 100 µM.
Under GQVELGGGPG stands at least 100 µM.
Under GSLQPLALE stands at least 100 µM.
The result for GSLQPLALEG reads at least 100 µM.
The sequence ICSLYQLEN showed an IC50 of at least 100 µM.
The result for ICSLYQLENY reads at least 100 µM; that for IVEQCCTSI, at least 100 µM.
The result for LALEGSLQK reads at least 100 µM; that for LALLALWGP, at least 100 µM; that for LALWGPDPA, at least 100 µM.
On to LGGGPGAGS, for which the IC50 was at least 100 µM.
Under LGGGPGAGSL stands at least 100 µM; under LLALLALWG, at least 100 µM; under LLALLALWGP, 29.6 µM.
Under LLALWGPDPA stands 1.96 µM; under LLPLLALLA, 1.37 µM.
Under LLPLLALLAL stands 5.84 µM; under LPLLALLAL, 11.8 µM; under LPLLALLALW, at least 100 µM.
LQPLALEGS registered an IC50 of at least 100 µM.
The result for LQPLALEGSL reads at least 100 µM; that for LQVGQVELG, at least 100 µM.
Under LQVGQVELGG stands at least 100 µM; under LWGPDPAAA, at least 100 µM.
LWGPDPAAAF showed an IC50 of at least 100 µM.
Take LYQLENYCN: the IC50 was at least 100 µM.
The result for PAAAFVNQH reads at least 100 µM; that for PAAAFVNQHL, at least 100 µM.
Under PDPAAAFVN stands at least 100 µM; under PDPAAAFVNQ, at least 100 µM; under PGAGSLQPL, at least 100 µM.
As to PGAGSLQPLA, the IC50 is at least 100 µM.
The sequence PLALEGSLQ showed an IC50 of at least 100 µM.
PLALEGSLQK gave a concentration for half-maximal inhibition (IC50) of at least 100 µM.
Under PLLALLALW stands at least 100 µM; under PLLALLALWG, 43.5 µM.
Consider QCCTSICSLY, for which the concentration for half-maximal inhibition (IC50) was at least 100 µM.
Sequence QPLALEGSL showed a half-maximal inhibitory concentration (IC50) of at least 100 µM.
Under QPLALEGSLQ stands at least 100 µM; under QVELGGGPG, at least 100 µM; under QVELGGGPGA, at least 100 µM.
The result for QVGQVELGG reads at least 100 µM.
In the case of QVGQVELGGG, the concentration for half-maximal inhibition (IC50) is at least 100 µM.
Consider SICSLYQLE, for which the IC50 is at least 100 µM.
The result for SICSLYQLEN reads at least 100 µM; that for SLQPLALEGS, at least 88 µM; that for SLYQLENYCN, at least 100 µM.
TSICSLYQL returned an IC50 of at least 100 µM.
As to TSICSLYQLE, the half-inhibitory concentration (IC50) is at least 100 µM.
VELGGGPGA: the IC50 was at least 100 µM.
Under VELGGGPGAG stands at least 100 µM; under VEQCCTSIC, at least 100 µM; under VEQCCTSICS, at least 100 µM.
The result for VGQVELGGG reads at least 100 µM; that for VGQVELGGGP, at least 100 µM.
With WGPDPAAAF, the IC50 is at least 100 µM.
Consider WGPDPAAAFV, for which the half-inhibitory concentration (IC50) stood at 4.46 µM.

Source of the values: the Immune Epitope Database (IEDB).
